According to the supplement of paper PMC9170038:

Tested on: MS2 coat protein
Assay: apparent KD of MS2 coat protein; designed switch direction (-1 OFF switch, 1 ON switch): -1; higher = weaker reporter binding
Method in brief: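 Apparent KD, taken as the median over clusters for each design, was obtained by curve-fitting normalised cluster fluorescence. Designed RNA switches had been transcribed on Illumina chips by stalled E. coli RNA polymerase and titrated with SNAP-549-labelled MS2 coat protein, doubling from 0.7 or 1.5 nM to 3 µM.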

[1] = input ligand: microRNA oligo, concentration not stated
[2] = Eterna round: R95, input ligand: FMN 200 uM
[3] = Eterna round: R95, input ligand: microRNA oligo, concentration not stated
[4] = Eterna round: R95, input ligand: none

Row | Sequence | apparent KD of MS2 coat protein (input ligand: FMN 200 uM) [nM] | apparent KD of MS2 coat protein [1] [nM] | apparent KD of MS2 coat protein (input ligand: none) [nM] | apparent KD of MS2 coat protein [2] [nM] | apparent KD of MS2 coat protein [3] [nM] | apparent KD of MS2 coat protein [4] [nM]
1 | UUUAGUUGGUAAGGAUAUCCUACAUUGUUCUGGCCCGGGCAUGCUACAUGAGGAUCACCCAUGUGGGAGAAGGUGCGUCAUUGC [Design 20] (Eterna round: R96, puzzle: Exclusion NG 2) | 42.5 | 42.5 | 51.8 | – | – | –
2 | ACGUAACGAGCUUGGUCCAACAUGAGGAUCACCCAUGUGCUCGUCUUAUAACGUACUGUCACGUUAGUGAUAGUGCG [Sensor v3, turn-off variant 1 (MOD of Eli's v1-13 v.6)] (puzzle: Sensor v3, turn-off variant 1) | – | – | – | 286 | 194 | 360
3 | AAUAAGCGAGGAUAUACACCCGGUAACCGGGAACGGGCGAGACAUGAGGAUCACCCAUGUAGAAGGCGCGUCAA [Ralaente] (Eterna round: R97, puzzle: Exclusion 2) | 182 | – | 161 | – | – | –
4 | CUGGUCCGAGGAUAUAUUAAGUGAUACAUGAGGAUCACCCAUGUUAUUUGAUGGAUGUUAAUAGAAGGCGGACUAG [JL-ex5-3.18] (puzzle: Exclusion 5) | – | – | – | 78.3 | 35.7 | 57.6
5 | AUGUACCGAAGAAGUUGUAACAUGAGGAUCACCCAUGUCGAAGUGAGGACAGGGAAGAGAAGCUGUGCUCGUCAUAG [Eternabot (L2) Solution 17] (Eterna round: R97, puzzle: Sensor, turn-off variant 1) | 71.6 | – | 77.9 | – | – | –
6 | AGGUGCUUCUGGAGACAUGAGGAUCACCCAUGUCGAGUUAGCGAGGAUAUCGGUAAGGCAUGUGAUGAGAAGGCGCAAACCGAU [Ex NG3 #50] (Eterna round: R96, puzzle: Exclusion NG 3) | 22.8 | 12.7 | 24.3 | – | – | –
7 | AAAAGGUCAGGAUAUGCGAGCGGCAGGGAGGCAGGUCGGUGGCAGAAGGGACAUGAGGAUCACCCAUGUUAAAA [Excls4-II] (puzzle: Exclusion 4) | – | – | – | – | 29.2 | –
8 | CUAAAUCAUGUAGGAUAUGCGUGGCGAAGCUAUGCAGAAGGACAUGAGGAUCACCCAUGUGCUUCCGUCUGAGAACAGACGGAA [Mat - Exclusion NG 1 - Mod of JL - D26] (Eterna round: R96, puzzle: Exclusion NG 1) | 115 | 277 | 251 | – | – | –
9 | GCAUCCAGUGUGAGGAUAUACCUCUGGAUACAUAGGUAGAAGGCACAUGAGGAUCACCCAUGUCCUAAGGAUGC [Fiskers BMX 4 - 29] (puzzle: Brourd's mod of Exclusion 4) | – | – | – | 104 | 47.5 | 75.5
10 | UACACCGCAUGAGGAUCAAACAUGAGGAUCACCCAUGUAUAGCAAGCUUUUUGCUCGUCUUAUAAAUAUGUGGUGUA [Electric Eye 8 - Jieux - Sensor, turn-off variant 1] (Eterna round: R97, puzzle: Sensor, turn-off variant 1) | 16.6 | – | 15.5 | – | – | –
11 | AAAAAAAAGUGAGGAUAUGGAAAUUUGGUGAUAACAUGAGGAUCACCCAUGUGAAAACAAUAAAAUUAGAAGGUAUAAAAAAAA [AK ExNG2-1] (Eterna round: R96, puzzle: Exclusion NG 2) | 122 | 73.1 | 98.8 | – | – | –
12 | UCAGGUGCAGGAUAUACAUGAGGAUCACCCAUGUGAUUAGCAGUCCUCGGACUGCAAUGUAGAAGGGCACCUGA [E3/2-D2] (Eterna round: R97, puzzle: Exclusion 3) | 763 | – | 346 | – | – | –
13 | CCGACCCGAGGAUAUUGUACUGCUGACAUGAGGAUCACCCAUGUAUGUUAACUCGGCCGACGAGAAGGCGGCGACA [BotMod 3 - Jieux - Exclusion 5] (Eterna round: R97, puzzle: Exclusion 5) | 18.4 | – | 22.1 | – | – | –
14 | GCCGGAUAAGUGAGGAUAUACCUAUGGAUACAUAGGUAGAAGGCACAUGAGGAUCACCCAUGUUCCUCUCCGGC [JL-BMX4-4.17 Eli mod] (Eterna round: R97, puzzle: Brourd's mod of Exclusion 4) | 406 | – | 30.3 | – | – | –
15 | GAUACACAUGAGGAUCACCCAUGUGAGGAUAUGAUACUAUGUACUUCGGUACAUAGUAUCAGAAGGCACAUUGA [Ex1-3: 44] (puzzle: Exclusion 1) | – | – | – | – | 61.2 | –
16 | AAUAACAAGCUGAUCCUUCACAUGAGGAUCACCCAUGUGCUCGUCUUGUAAAGUACUAUCACGAAAGUGAUAGUACA (Eterna round: R97, puzzle: Sensor, turn-off variant 1) | 127 | – | 125 | – | – | –
17 | GGAUCGAGUGUGAGGAUAUGCUGGUCCUUGGAUCAGCAGAAGGCACAUGAGGAUCACCCAUGUGAAGACGAUCC [Mat - Exclusion 4 - JL Mod - D73] (Eterna round: R96, puzzle: Brourd's mod of Exclusion 4) | 230 | 23.1 | 28.7 | – | – | –
18 | GAAAACGCAGAGGAUAUUUCAGGUCAAAGCUGCAAAGAAGGCUGCACAUGAGGAUCACCCAUGUGGUCAAUAAA [Mod of Quesina 21 - Jieux - Exclusion 6] (Eterna round: R97, puzzle: Exclusion 6) | 419 | – | 34.3 | – | – | –
19 | AACUGAUCUUGAGGAUAUCAAACACAUGAGGAUCACCCAUGUCACGAGACGGUGCUUUCCAGGAGUGAGAAGGUAAGCAGCGAG [Eternabot solution 44] (Eterna round: R96, puzzle: Exclusion NG 2) | 31 | 28 | 37.1 | – | – | –
20 | UAUGCCUUUGUGAGGAUAUACUUUGUUUGGUCGUAGUAGAAGGCACAUGAGGAUCACCCAUGUAGAUUUUUGGU [JR_BME4_Sub012] (puzzle: Brourd's mod of Exclusion 4) | – | – | – | – | 25.4 | –
21 | CCAUAUAGGAGAGGAUAUACGCACCACUAACUAGUAGAAGGCUCACAUGAGGAUCACCCAUGUGAUUUCUCAAUAUUAUACAUC [Prohibition 73 - Jieux - Exclusion NG 1] (Eterna round: R96, puzzle: Exclusion NG 1) | 50.3 | 25.6 | 34.8 | – | – | –
22 | AGUAUCUGAGGAUAUUGAGUUAUCUACAUGAGGAUCACCCAUGUUGUAUGUGUAGAAGCACGAGAAGGCAGAUACA [Eternabot (L2) Solution 1] (Eterna round: R97, puzzle: Exclusion 5) | 395 | – | 102 | – | – | –
23 | UUUUUUUUGGUAAGGAUAUGAUGCAGGAAACUGCGUCAGAAGGUACAUGAGGAUCACCCAUGUUAAUUUUUUUU [Explosion 11 - Jieux - Brourd's mod of Exclusion 4] (Eterna round: R97, puzzle: Brourd's mod of Exclusion 4) | 23 | – | 18.6 | – | – | –
24 | ACAGCGUGAGGAUAUACAUGAGGAUCACCCAUGUGUGGCAGGUUAUCCUGUCAUAAGUGUAGAAGGCACGCUGU [Exclusion 3 - Oddities v.6 ( A small slide from ms2 to fmn)] (puzzle: Exclusion 3) | – | – | – | – | 37.2 | –
